The record followed here is publication PMC7652416.

For experiment [1], the target named is ClpX^ΔN (residues 62–424) T199S mutant (E. coli) (UniProt P0A6H1).
For experiment [2], the target named is ClpX^ΔN (residues 62–424) T199V mutant (E. coli) (UniProt P0A6H1).
Experiment [3] concerns the target E. coli ClpX^∆N (residues 62–424) (E. coli) (UniProt P0A6H1).

For GFP-ssrA, the KM of GFP-ssrA degradation by ClpX^∆N variant/ClpP (Michaelis-Menten fit) in experiment [1] came to 6.3 µM; in experiment [2], 89 µM. Further, the KM of GFP-ssrA degradation by ClpX^∆N/ClpP (Michaelis-Menten fit) in experiment [3] was 1.3 µM.
